Data reported in the Human Domainome abundance scans (Beltran et al. 2025).
± gives the uncertainty stated by the source.

B1: TOX high mobility group box family member 3, residues 256 to 323; numbered along this chain, O15405 (parent)
chain: QKPVSAYALFFRDTQAAIKGQNPNATFGEVSKIVASMWDSLGEEQKQVYKRKTEAAKKEYLKALAAYR

Variants of: B1
Test: abundance fitness (aPCA) (normalised: wild type 0, dead -1); higher = more abundant; growth selection in yeast, the domain comes from the species named
Conditions: Homo sapiens

Row | Variant | abundance fitness
1 | QKPVSAYALFFRDTQAAIKGQNPNATFGEVSKIVASMWDSLGEEQKQVYKRKTEAAAKEYLKALAAYR [K57A] | -0.034 ± 0.069
2 | QKPVSAYALFFRDTQAAIKGQNPNATFGEVSKIVASMWDSLGEEQKQVYKRKTEAATKEYLKALAAYR [K57T] | -0.093 ± 0.063
3 | QKPVSAYALFFRDTQAAIKGQNPNATFGEVSKIVASMWDSLGEEQKQVYKRKTEAAVKEYLKALAAYR [K57V] | -0.252 ± 0.057
4 | QKPVSAYALFFRDTQAAIKGQNPNATFGEVSKIVASMWDSLGEEQKQVYKRKTEAAKKEYLKALAAPR [Y67P] | 0.352 ± 0.088
5 | QKPVSAYALFFRDTQAAIKGQNPNATFGEVSKIVASMWDSLGEEQKQVYKRKTEAAKKEYLKALAALR [Y67L] | -0.044 ± 0.057
6 | QKPVSAYALFFRDTQAAIKGQNPNATFGEVSKIVASMWDSLGEEQKQVYKRKTEAAKKEYLKALAACR [Y67C] | 0.208 ± 0.064
7 | QKPVSAYALFFRDTQAAIKGQNPNATFYEVSKIVASMWDSLGEEQKQVYKRKTEAAKKEYLKALAAYR [G28Y] | -0.5 ± 0.15
8 | QKPVSAYALFFRDTQAAIKGQNPNATFTEVSKIVASMWDSLGEEQKQVYKRKTEAAKKEYLKALAAYR [G28T] | -0.028 ± 0.086
9 | QKPVSAYALFFRDTQAAIKGQNPNATFGEVSKIVAEMWDSLGEEQKQVYKRKTEAAKKEYLKALAAYR [S36E] | 0.044 ± 0.042
10 | QKPVSAYALFFRDTQAAIKGQNPNATDGEVSKIVASMWDSLGEEQKQVYKRKTEAAKKEYLKALAAYR [F27D] | 0.133 ± 0.068
11 | QKPVSAYALFFRDTQAAIKGQNPNATAGEVSKIVASMWDSLGEEQKQVYKRKTEAAKKEYLKALAAYR [F27A] | 0.249 ± 0.057
12 | QKPVSAYALFFRDTQAAIKGQNPNATFGEVSKIVASMWDSLGEEQKQVYKRKTEAAKKDYLKALAAYR [E59D] | 0.047 ± 0.11
13 | QNPVSAYALFFRDTQAAIKGQNPNATFGEVSKIVASMWDSLGEEQKQVYKRKTEAAKKEYLKALAAYR [K2N] | -0.005 ± 0.1
14 | QQPVSAYALFFRDTQAAIKGQNPNATFGEVSKIVASMWDSLGEEQKQVYKRKTEAAKKEYLKALAAYR [K2Q] | -0.337 ± 0.14
15 | QKPVSAYALFFRDTQAAIKTQNPNATFGEVSKIVASMWDSLGEEQKQVYKRKTEAAKKEYLKALAAYR [G20T] | 0.038 ± 0.086
16 | QKPVSAYALFFRDTQAAIKGQNPNATFGEVSKIVASMWDSLGEEQKQVYKRKTENAKKEYLKALAAYR [A55N] | 0.001 ± 0.063
17 | QKPVSAYALFFRDTQAAIKGQNPNATFGEVSKIVASMWDSLGEEQKQVYKRKTELAKKEYLKALAAYR [A55L] | -0.058 ± 0.041
18 | QKPVSAYALFFRDTQAAIKGQNPNATFGEVSKIVASMWDSLGEEQKQVYKRKTESAKKEYLKALAAYR [A55S] | -0.029 ± 0.041
19 | QKPVSAYALFFRDTQAAIKGQNPNATFGEVSKIVASMWDSLGEEQKQVYKRKTEDAKKEYLKALAAYR [A55D] | -0.104 ± 0.07
20 | QKPVSAYALFFRDTQAAIKGQNPNATFGEVSKIVASMWDSLGEEQKQVYKRKTEAAKKEYLKALAPYR [A66P] | 0.182 ± 0.05

Row | Variant | abundance fitness
21 | QKPVSAYALFFRKTQAAIKGQNPNATFGEVSKIVASMWDSLGEEQKQVYKRKTEAAKKEYLKALAAYR [D13K] | -0.646 ± 0.18
22 | QKPVSAYALFFRDTIAAIKGQNPNATFGEVSKIVASMWDSLGEEQKQVYKRKTEAAKKEYLKALAAYR [Q15I] | 0.027 ± 0.27
23 | QKPVSAYALFFRDTHAAIKGQNPNATFGEVSKIVASMWDSLGEEQKQVYKRKTEAAKKEYLKALAAYR [Q15H] | -0.084 ± 0.14
24 | QKPVSAYALFFRDTQAAIKGQNPNGTFGEVSKIVASMWDSLGEEQKQVYKRKTEAAKKEYLKALAAYR [A25G] | -0.696 ± 0.1
25 | QKPVSAYALFFRDTQAAIKGQNPNITFGEVSKIVASMWDSLGEEQKQVYKRKTEAAKKEYLKALAAYR [A25I] | -0.121 ± 0.066
26 | QKPVSAYALFFRDTQAAIKGQNPNATFGTVSKIVASMWDSLGEEQKQVYKRKTEAAKKEYLKALAAYR [E29T] | -0.495 ± 0.077
27 | QKPVSASALFFRDTQAAIKGQNPNATFGEVSKIVASMWDSLGEEQKQVYKRKTEAAKKEYLKALAAYR [Y7S] | -0.404 ± 0.076
28 | QKPVSANALFFRDTQAAIKGQNPNATFGEVSKIVASMWDSLGEEQKQVYKRKTEAAKKEYLKALAAYR [Y7N] | 0.007 ± 0.16
29 | QKPVSAGALFFRDTQAAIKGQNPNATFGEVSKIVASMWDSLGEEQKQVYKRKTEAAKKEYLKALAAYR [Y7G] | -0.33 ± 0.07
30 | QKPVSAKALFFRDTQAAIKGQNPNATFGEVSKIVASMWDSLGEEQKQVYKRKTEAAKKEYLKALAAYR [Y7K] | -0.033 ± 0.077
31 | QKPVSAYALFFRDTQAAIKGQNPNATFGEVSKIVASMWDSLGEEQKQVYKRKTEAAKKEYLKMLAAYR [A63M] | -0.178 ± 0.059
32 | QKPVSAYALFFRDTQAAIKGQNPNATFGEVSKIVASMWDSLGEEQKQVYKRKTEAAKKEYLKILAAYR [A63I] | -0.34 ± 0.076
33 | QKPVSAYALFFRDTQAAIKGQNPNATFGEVSKIVASMWDSLGEEQKQVYKRKTEAAKKEYLKELAAYR [A63E] | 0.285 ± 0.056
34 | QKPVSAYALFFRDTQAAIKGQNPNATFGEVSKIVASMWDSLGEEQKQVYRRKTEAAKKEYLKALAAYR [K50R] | 0.079 ± 0.25
35 | QKPVSAYAVFFRDTQAAIKGQNPNATFGEVSKIVASMWDSLGEEQKQVYKRKTEAAKKEYLKALAAYR [L9V] | -0.224 ± 0.077
36 | QKPVSAYALFFRDTQAAIKGQNPNATFGEVSKIVASMWDSLGEEQKQVYKRKTEAAKKEYLKALSAYR [A65S] | 0.042 ± 0.069
37 | QKPVSAYALFFRDTQAAIKGQNPNATFGEVSKIVASMWDSLYEEQKQVYKRKTEAAKKEYLKALAAYR [G42Y] | -0.525 ± 0.15
38 | QKPVSAYALFFRDTQAAIKGQNPNATFGEVSKIVASMWDSLGEEYKQVYKRKTEAAKKEYLKALAAYR [Q45Y] | -0.373 ± 0.23
39 | QKPVSAYQLFFRDTQAAIKGQNPNATFGEVSKIVASMWDSLGEEQKQVYKRKTEAAKKEYLKALAAYR [A8Q] | 0.09 ± 0.081
